Data from article PMC7588232, “Molecular mechanism for direct actin force-sensing by α-catenin” (eLife, 2020).
One block for each binder: values may come before it.

Target: F-actin (filamentous actin), unlabeled, from chicken skeletal muscle (chicken, UniProt P68139 1-377)
Test: cryo-EM structure; 0.6 uM F-actin in KMEI applied to the grid, then 10 uM metavinculin ABD or 20 uM α-catenin ABD in KMEI, 25 °C; helical reconstruction (IHRSR, RELION 3.0)
Details: both partners purified

- stoichiometry N: 1
B1: H. sapiens α-catenin ABD (αE-catenin 664-906), not Halo-tagged (domain or fragment)
chain: IAGQSARAIMAQLPQEQKAKIAEQVASFQEEKSKLDAEVSKWDDSGNDIIVLAKQMCMIMMEMTDFTRGKGPLKNTSDVISAAKKIAEAGSRMDKLGRTIADHCPDSACKQDLLAYLQRIALYCHQLNICSKVKAEVQNLGGELVVSGVDSAMSLIQAAKNLMNAVVQTVKASYVASTKYQKSQGMASLNLPAVSWKMKAPEKKPLVKREKQDETQTKIKRASQKKHVNPVQALSEFKAMDSI
notes: residues 699-871 modelled in the map; Form used for cryo-EM; source: E. coli Rosetta2(DE3), purified (Ni-NTA, TEV cleavage, HiTrapQ, Superdex 200; no glycerol); not shown: His6, N-terminal, cleaved; Strep-tag, N-terminal, cleaved

- stoichiometry N: 1
B2: H. sapiens metavinculin ABD (879-1134), not Halo-tagged (domain or fragment)
chain: EEKDEEFPEQKAGEVINQPMMMAARQLHDEARKWSSKPGIPAAEVGIGVVAEADAADAAGFPVPPDMEDDYEPELLLMPSNQPVNQPILAAAQSLHREATKWSSKGNDIIAAAKRMALLMAEMSRLVRGGSGTKRALIQCAKDIAKASDEVTRLAKEVAKQCTDKRIRTNLLQVCERIPTISTQLKILSTVKATMLGRTNISDEESEQATEMLVHNAQNLMQSVKETVREAEAASIKIRTDAGFTLRWVRKTPWYQ
notes: residues 981-1131 modelled in the map; Form used for cryo-EM; source: E. coli Rosetta2(DE3), purified (Ni-NTA, TEV cleavage, HiTrapQ, Superdex 200; no glycerol); not shown: His6, N-terminal, cleaved; Strep-tag, N-terminal, cleaved
